Experimental data reported in patent US20160002297A1, “THERAPEUTIC AGENTS” (NATIONAL UNIVERSITY OF SINGAPORE, priority 2013, published 2016).
Positions of bridges follow the written chain, without caps; N, C: chain ends. No end group written: not given here. *: point of attachment. FITC = O=C1OC2(c3ccc(O)cc3Oc3cc(O)ccc32)c2ccc(NC(=S)*)cc21

Legend:
[1] = tested on: B16 melanoma; assay: FITC-RKD targeting to subcutaneous B16 tumor in mice after intravenous delivery; format: in vivo, mouse; details: delivered intravenously
From the text: FIG. 9 FITC labelled cRKD (FITC-RKD) targets to subcutaneous B16 tumor in mice when delivered intravenously.
FIG. 10 FITC-RKD targets both the B16 melanoma tumor cells and tumor ECs when delivered intravenously;

[2] = tested on: 4T1 breast carcinoma cells; assay: FITC-RKD binding to the 4T1 breast cancer cell surface in vitro; format: cell-based; details: 24 h treatment
Experimental: FIG. 12a FITC-RKD peptide binds to cell-surface GRP78. […] 4T1 breast carcinoma cells were treated with FITC-RKD (green) 24 h. Cells were fixed and stained by Phalloidin (red) to represent the cell outline. Nuclei were counter stained by DAPI (blue).

[3] = target: T1, GRP78 (Homo sapiens, UniProt P11021); assay: Co-immunoprecipitation with GRP78; format: binding
Experimental: (§1) The membrane fraction of HUVECs was isolated by using Mem-PER Eukaryotic Membrane Protein Extraction Kit which was also obtained from Pierce (Rockford, Ill., USA).
1 μg antibodies of GRP78 were pre-immobilized on 20 μl protein A/G agarose beads from Santa Cruz (Santa Cruz, Calif., USA) for 1 h at room temperature. Unbound antibodies were washed out by 100 mM Tris-Hcl (pH 8.0). Then 1 μg ISM and 1 μg GRP78 (or 1 mg membrane fraction protein lysates containing GRP78) were incubated with GRP78 antibody mounted beads for 4 h at 4° C. After removing the unbound proteins, precipitates were resolved by SDS-PAGE and analyzed for the presence of ISM, GRP78 or AACs by Western blotting.
Target sequence in this assay (P11021 19-654, species assumed): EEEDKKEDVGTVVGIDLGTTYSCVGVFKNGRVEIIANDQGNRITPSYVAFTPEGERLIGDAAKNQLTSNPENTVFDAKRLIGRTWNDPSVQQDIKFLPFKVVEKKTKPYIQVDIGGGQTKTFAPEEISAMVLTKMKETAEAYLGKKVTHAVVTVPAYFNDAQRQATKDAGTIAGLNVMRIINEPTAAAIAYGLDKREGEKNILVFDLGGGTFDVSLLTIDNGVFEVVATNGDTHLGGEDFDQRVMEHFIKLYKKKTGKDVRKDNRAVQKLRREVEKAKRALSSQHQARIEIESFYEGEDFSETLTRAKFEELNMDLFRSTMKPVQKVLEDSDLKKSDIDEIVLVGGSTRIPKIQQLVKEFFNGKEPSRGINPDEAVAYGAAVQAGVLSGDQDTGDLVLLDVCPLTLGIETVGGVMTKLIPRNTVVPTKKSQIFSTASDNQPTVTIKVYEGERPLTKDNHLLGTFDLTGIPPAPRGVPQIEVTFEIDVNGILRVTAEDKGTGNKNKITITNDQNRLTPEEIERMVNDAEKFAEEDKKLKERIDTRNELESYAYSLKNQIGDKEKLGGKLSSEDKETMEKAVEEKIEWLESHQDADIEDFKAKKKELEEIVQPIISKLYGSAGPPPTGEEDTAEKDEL

[4] = tested on: HUVECs; assay: Uptake of FITC-labelled peptide by cultured HUVECs; format: cell-based, human; details: compared to FITC-labeled cRAA peptide
From the text: FIG. 11 FITC-RKD peptide enters cultured HUVECs likely by endocytosis;

[5] = target: T2, GRP78, purified recombinant protein (UniProt P11021 19-654, limits assumed); assay: ELISA solid phase-binding assay, GRP78 titrated on the coated ligand
T2 construct: also called glucose-regulated protein 78 kDa; BiP

[6] = target: T1, GRP78; assay: ELISA solid phase-binding assay for binding affinity to GRP78
Experimental: (§2) ELISA solid phase-binding assay was used to determine the dissociation constant between ISM or cyclic peptide and GRP78 as previously described with minor modification (Nishiuchi, Takagi et al. 2006). 96-well plates were coated with 50 μl of 10 nM cyclic peptide at 4° C. overnight. Nonspecific binding sites were blocked with 1% BSA for 2 h at room temperature. Increasing concentrations of GRP78 were incubated with immobilized cyclic peptide. After washing, the amount of bound GRP78 was quantified by ELISA. The value for Kd was calculated by GraphPad Prism software.
Target sequence in this assay (P11021 19-654, species assumed): as above

[7] = tested on: ECs; assay: Cell attachment (EC adhesion) assay; format: cell-based; details: peptide coated on plastic surface
Experimental: 96-well plates were coated with 50 μl of 1 μM ISM at 4° C. overnight. Nonspecific binding sites were blocked with 1% BSA for 2 h at 37° C. ECs were harvested and incubated in CSC basal medium containing 4 μg/ml neutralizing antibodies or control IgG for 30 min. 2[…]104 cells were plated to each well and allowed to attach for 60 min at 37° C. Attached cells were fixed by 10% formalin and stained with 0.2% crystal violet. Absorbed crystal violet was extracted by 10% acetic acid and quantified by measuring the absorbance of eluted dye at 595 nm with a microplate reader.

[8] = tested on: HUVECs; assay: Tube formation assay on Matrigel; format: cell-based, human
Experimental: HUVECs (1×10^4) were pre-treated with peptides of various concentrations for 30 min before being plated onto the polymerized Matrigel (Millipore, USA) in 15-well μ-slide (Ibidi, Germany). After 4-6 h, capillary network was documented using Zeiss Axiovert200 inverted microscope (Maple Grove, Minn., USA). Tube length was quantified by measuring the length of branches in representative fields using ImageJ software. Plots represented the mean of 3 wells of tubular length in 15-well μ-slide (t SEM).

[9] = tested on: endothelial cells (ECs); assay: Apoptosis assay (Cell Death ELISA) in cultured ECs; format: cell-based
Experimental: ECs (2×10^4 cells per well) in 96-well plate were starved in 2% FBS basal CSC medium for 3 h. Cells were then incubated with peptides of various concentrations and 15 ng/ml VEGF for 24 h. Apoptosis was detected by measuring cytosolic oligonucleosome-bound DNA using a Cell Death ELISA kit purchased from Roche (USA). Plots represented the mean of 3 wells of apoptotic cells in 96 well plate (±SEM).

[10] = target: T2, GRP78, purified recombinant protein; assay: ELISA solid phase-binding assay, compared with cRKD
Experimental: as §2
Using similar ELISA method, we determined the binding affinity between kRKD peptide and GRP78 using purified recombinant GRP78 protein.

[11] = tested on: B16F10 melanoma; assay: Mouse tumorigenesis: subcutaneous B16F10 melanoma, intravenous treatment from day 0; format: in vivo
Experimental: FIG. 4 Recombinant ISM and ISM derived cRKD peptide inhibit B16F10 tumour growth in vivo. A. Tumour growth curve in mice. X-axis represents the days after 5×10^5 tumour cell inoculation. Groups consisted of control mice receiving no treatment, recombinant ISM, cRKD peptide and its control-cyclic RAA peptide, given in six doses of 250 μg/mouse through tail vein injection on days 0, 2, 4, 6, 8, and 10 (5 mice in each group, each mice with one tumour). **: p<0.01,*: p<0.05, n=5. B. Tumour weight at the end of the experiment (14 days after tumour cell inoculation). C. Recombinant ISM and cRKD peptide inhibits B16F10 tumour growth. […] Paraffin sections of tumors from mice groups treated by control, ISM, cRAA and cRKD peptides were probed for microvessel density, tumor cell proliferation and apoptosis through immunofluoresence staining using anti-CD31 (A), anti-PCNA (B) and TUNEL staining (C) respectively. Representative photos are shown. (D) Quantification of microvessel density. Microvessel density is the number of microvessels per microscopic field. (E) Quantification of cell proliferation in tumor sample. Cell proliferation is presented as the percentage of PCNA positive cells out of the total number of cells (DAPI positive cells) in the microscopic field. (F) Quantification of apoptosis in tumor. Apoptosis is quantified as the percentage of TUNEL positive cells out of the total number of cells (DAPI positive cells) in the microscopic field. Plots represent the mean of 3 fields per section, 3 sections per tumor and 2 tumors per group (±SEM). ** P≦0.01, * P≦0.05; Adult 8-week-old female C57BL/6J mice were used in this study. Animal care and experimentation was carried out under the institutional guidelines issued by the local institutional animal care and use committee (IACUC; protocol 066/12). 5×10^5 B16F10 cells in 0.1 ml PBS were injected subcutaneously into the dorsal left flank of the mouse. Twenty mice were assigned into 4 different groups consisted of control mice receiving no treatment, recombinant ISM, cyclic RKD peptide and its peptide control-cyclic RAA peptide, given in six doses of 250 μg through tail vein injection on days 0, 2, 4, 6, 8, and 10 (5 mice in each group, each mice with one tumor). Health status of the mice was monitored over two weeks and visible tumor size were measured daily by calipers after 8 days until the end point (day 14). Tumor volume was calculated using the following formula: 0.52×length×(width)^2 mm^3, where the largest dimension of the tumor is considered as the length and the width is the perpendicular dimension. On day 14, mice were sacrificed, and their dorsal flank was opened and photographed to exam the vascularization. Then tumors were excised and weighed followed by either fixing in 4% paraformaldehyde for sectioning or snap-freezing in liquid nitrogen for further analysis. Paraffin-embedded tissue sections of 5 μm were deparaffinized by heating at 60° C. for 7 minutes before deparaffinizing in histoclear followed by the rehydration in graded series of alcohol (100%, 90%, 80%, and 70% ethanol in ddH2O) and finally in PBS for 5 minutes. Antigen retrieval was done in a bench-top 2100-Retriever according to the protocol of the manufacturer (Electron Microscopy Sciences, Hatfield, Pa.). The sections were blocked with 3% bovine serum albumin (BSA) in a humidified chamber for 1 hour at room temperature followed by overnight incubation with the anti-CD31 (Santa Cruz Biotechnology, Santa Cruz, Calif.), anti-PCNA antibody (Santa Cruz Biotechnology), anti-GRP78 antibody (Santa Cruz Biotechnology), or anti-His tag antibody (Santa Cruz Biotechnology) at 4° C. The following day, unbound antibody was washed with 1×PBS containing 0.1% Tween-20 (1×PBST) and incubated with the corresponding Alexafluor 568 secondary antibodies (Life Technologies) for 1.5 hours at 37° C. Sections were rinsed again and incubated for 10 minutes with DAPI at 1 μg/mL to visualize the DNA in the cell nucleus. […]

[12] = target: T1, GRP78; assay: Pull down assay with HUVEC plasma membrane extract; format: binding; set-up: Incubation of ISM with plasma membrane extract from HUVECs; endogenous in cells; host or cells: HUVEC plasma membrane fraction; details: plasma membrane extract from HUVECs
From the text: His-tagged ISM and its binding partners from plasma membrane extract were pulled down by Epitope Tag Protein Isolation Kit with separation columns purchased from μMACS (Bergisch Gladbach, Germany). For searching potential binding partners of ISM, eluants were subjected to SDS-PAGE and stained with coomassie blue. Excised bands were identified by MALDI-TOF-TOF mass spectrometry analysis.
as §1
Target sequence in this assay (P11021 19-654): as the sequence (P11021 19-654, species assumed) above

T2 sequence (P11021 19-654 limits assumed): as the sequence (P11021 19-654, species assumed) above

In the case of “FITC-RKD: FITC-CRKDC, disulfide bridge 1-5 ({FITC}-CRKDC; disulfide 1-5)”, the “cell types labelled in the tumor” value [1] is reported as “Both tumor cells and tumor blood vessel endothelial cells are labeled”, the “labelling of xenograft melanoma” value [1] is reported as “preferentially labelled xenograft melanoma” and the “binding to 4T1 cell surface” value [2] is reported as “binds 4T1 breast cancer cell surface in vitro”. The “binding to cell-surface GRP78 by co-immunoprecipitation” value ([3]; anti-FITC antibody, plasma membrane fraction of cultured HUVECs) was “binds cell-surface GRP78” and the “uptake by cultured HUVECs” value [4] was “efficiently taking up by cultured HUVECs”.

Molecule “Isthmin (ISM), recombinant His-tagged protein (from UniProt A2ATD1 30-454) (ligand)” has a Kd [5] of 8.6 nM.

With “cRAA: Negative control mutant peptide, sequence CRAAC, disulfide bridge 1-5 (disulfide 1-5) [reference compound]” the “affinity for GRP78, fold less than cRKD” value ([6]; relative to cRKD) was “about 50 fold”, the “EC attachment and adhesion” value [7] was “lost the ability to mediate EC adhesion” and the “anti-angiogenic activity at 1 μM” value ([8]; 1 μM peptide) was “no anti-angiogenic activity”. For the same molecule, the “inhibition of EC tube-like structure formation on Matrigel” value ([8]; dose-dependence) was “lost this activity”, the “pro-apoptotic activity at 1 μM” value ([9]; 1 μM peptide, cultured ECs with VEGF) was “almost no activity” and the “induction of EC apoptosis (pro-apoptotic activity)” value ([9]; cultured ECs in the presence of VEGF, 24 h) was “completely destroyed the proapoptotic activity”.

B1: Cyclic RAA peptide (cRAA) (peptide)
peptide: CRAAC
modifications: disulfide 1-5
notes: Mutant control of cRKD, with K and D both changed to A; also called control-cyclic RAA peptide
For B1, the “fold lower affinity than cRKD” value [10] was about 50 fold.

B2: ISM: Isthmin, a 60 kDa secreted angiogenesis inhibitor; recombinant His-tagged mouse protein (protein, UniProt A2ATD1 30-454, looked up)
Isthmin-1: SDRQDAAAGNNNLNLESDSTSETSFPLSKEAPEEHQVVHQPFPRQRFPPETGHPSLQRDGPRSFLLDLPNFPDLSKADINGQNPNIQVTIEVVDGPDSEAEKDQHPENKPSWSLPAPDWRAWWQRSLSLARTNSGDQDDKYDSTSDDSNFLSVPRGWDRPAPGHRTFETKEQPEYDSTDGEGDWSLWSVCSVTCGNGNQKRTRSCGYACIATESRTCDRPNCPGIEDTFRTAATEVSLLAGSEEFNATKLFEVDMDSCERWMSCKSEFLKKYMHKVINDLPSCPCSYPTEVAYSTADIFDRIKRKDFRWKDASGPKEKLEIYKPTARYCIRSMLSLESTTLAAQHCCYGDNMQLITRGKGAGTPNLISTEFSAELHYKVDVLPWIICKGDWSRYNEARPPNNGQKCTESPSDEDYIKQFQEAREY
modifications: His tag
notes: recombinant His-tagged mouse protein
With B2 the tumor growth ([11]; 250 μg/mouse intravenous every 2 days, days 0-10, subcutaneous B16F10) was “suppressed tumor growth”, the “vascularization (blood vessels supplying the tumor)” value ([11]; 250 μg/mouse intravenous, day 14) was “reduced vascularization” and the “tumor angiogenesis, tumor cell proliferation and tumor cell apoptosis” value ([11]; immunofluorescence of tumor sections) was “suppress tumor angiogenesis, tumor cell proliferation and induce tumor cell apoptosis”. For the same molecule, the “apoptosis of tumor cells and tumor ECs (CD31/TUNEL double staining)” value ([11]; tumor sections, compared to controls) was “both tumor cells as well as tumor ECs became apoptotic”, the “tumor vessel density (anti-CD31 immunofluorescence)” value ([11]; tumor tissue sections) was “obvious reduction of tumor vessel density” and the Kd ([6]; purified recombinant GRP78) was 8.6 nM. The “binding partner of ISM identified by pull-down” value [12] was “identified GRP78 as a ISM binding protein” and the “ISM-GRP78 interaction by co-immunoprecipitation” value ([3]; purified recombinant ISM and GRP78 proteins) was “confirmed the ISM-GRP78 interaction”.
